Laboratory results from US20040180380A1.

Experiments:
antibody C1 [1] = assay: peptide competition ELISA; reference YEVQGEVF
antibody C1 [2] = assay: peptide competition ELISA; competitor for C1
antibody P1 [3] = assay: peptide competition ELISA; reference EPAELTDA
antibody P1 [4] = assay: peptide competition ELISA; competitor for P1
antibody C1 [5] = assay: peptide competition ELISA; free peptide competes with coated target peptide for C1

fold higher concentration (ineffective) than the antigen PET's half-maximum (antibody C1 [1]) [fold]	IC50 (antibody C1 [2]) [µM]	fold higher concentration (ineffective) than the antigen PET's half-maximum (antibody P1 [3]) [fold]	IC50 (antibody P1 [4]) [µM]	IC50 (antibody C1 [5]) [µM]	Binder
> 1000	> 1000	–	–	–	VEVNGEVF [nearest-neighbor 8-mer VEVNGEVF]
> 1000	> 1000	–	–	–	YEVLGEEF [nearest-neighbor 8-mer YEVLGEEF]
–	–	25000	> 1000	–	EPVELTSA [nearest-neighbor 8-mer EPVELTSA]

The next lines start with the binder.

Binder	fold higher concentration (ineffective) than the antigen PET's half-maximum (antibody C1 [1]) [fold]	IC50 (antibody C1 [2]) [µM]	fold higher concentration (ineffective) than the antigen PET's half-maximum (antibody P1 [3]) [fold]	IC50 (antibody P1 [4]) [µM]	IC50 (antibody C1 [5]) [µM]
DPTQLTDA [nearest-neighbor 8-mer DPTQLTDA]	–	–	25000	> 1000	–
YEVQGEVF [CRP-derived 8-mer PET sequence YEVQGEVF]	–	–	–	–	1
